The results in this text go back to article PMC5963676.

One may read the Kd as the concentration at which binding is half-saturated. A lower Kd goes with a tighter complex.

Series [1] deals with His-tagged pantothenate synthetase with a C-terminal extension (PS-[LCGR]), expressed from pCA24N(-GFP) (E. coli). Briefly: ITC. A general note: ITC needs no label: the signal is the heat of the interaction.
The target in series [2] is His-tagged YfcD (putative Nudix hydrolase) expressed from pCA24N(-GFP) (E. coli). The series is described as follows: ITC.
The target of series [3] is His-tagged YfcD (putative Nudix hydrolase) expressed from pCA24N(-GFP). Briefly: fluorescence polarisation.

“Also recorded” adds a separate entry of the source.

In turn, “His-tagged YfcD (putative Nudix hydrolase) expressed from pCA24N(-GFP) (natural protein)” yielded an equilibrium dissociation constant (Kd) in series [1] of 30 µM. In series [2], “His-tagged pantothenate synthetase expressed from pET28a (from UniProt P31663 1-283) (enzyme)” returned a dissociation constant Kd of 2.11 µM.

B1: FITC-labelled His-tagged pantothenate synthetase (pET28a), labelled by sortase on the N-terminal glycine (protein)
chain: MLIIETLPLLRQQIRRLRMEGKRVALVPTMGNLHDGHMKLVDEAKARADVVVVSIFVNPMQFDRPEDLARYPRTLQEDCEKLNKRKVDLVFAPSVKEIYPNGTETHTYVDVPGLSTMLEGASRPGHFRGVSTIVSKLFNLVQPDIACFGEKDFQQLALIRKMVADMGFDIEIVGVPIMRAKDGLALSSRNGYLTAEQRKIAPGLYKVLSSIADKLQAGERDLDEIITIAGQELNEKGFRADDIQIRDADTLLEVSETSKRAVILVAAWLGDARLIDNKMVELA
With B1, the K0.5 result in series [3] was “K0.5 = 1.87 ± 0.08 μM; also recorded: K0.5 2.16 ± 0.11 μM”.
